Source: the RNAGym collection of RNA variant scans (doi:10.7554/elife.80360)

B1: HDV Ribozyme (parent)
chain: GGCCGGCAUGGUCCCAGCCUCCUCGCUGGCGCCGGCUGGGCAACAUUCCGAGGGGACCGUCCCCUCGGUAAUGGCGAAUGGGACCCA

Variants of: B1
Test: self-cleavage, relative activity (ratio to wild type); higher = more cleavage; co-transcriptional
G10U C14U showed a self-cleavage of 0.672. With G11A U23A the self-cleavage was 0.313. G11A U23C showed a self-cleavage of 0.353. G11U G34C gave a self-cleavage of 0.166. In the case of G11U G34A, the self-cleavage is reported as 0.21. G10U G40A gave a self-cleavage of 0.745. Variant U12A G17A has a self-cleavage of 0.19. With G10U G55C the self-cleavage was 0.831. With G11C U79C the self-cleavage was 0.121. Work on G10U U37A yielded a self-cleavage of 0.058. In the case of G11U C58G, the self-cleavage is reported as 0.44. G11U C19U showed a self-cleavage of 0.0489. Work on U12A A70C yielded a self-cleavage of 0.332. Variant G11U A70C has a self-cleavage of 0.0536. For G10U U79A, the self-cleavage was 0.352. U12A G38A gave a self-cleavage of 0. Variant U12A G38C has a self-cleavage of 0.0489. In the case of G11C C26G, the self-cleavage is reported as 0.95. With G11C C26A the self-cleavage was 0.462. In the case of G10C U47C, the self-cleavage is reported as 0.332. Variant U12A C15U has a self-cleavage of 0.138. With G11U C41A the self-cleavage was 0.201. In the case of G11U C41U, the self-cleavage is reported as 0.358. Work on G11C G38A yielded a self-cleavage of 0.0519. U12A G52A gave a self-cleavage of 0.364. For U12A U72C, the self-cleavage was 0.277. With G11A U69G the self-cleavage was 0.374. In the case of G11A U69C, the self-cleavage is reported as 0.324. Variant G10U G25A has a self-cleavage of 0.114. With G10C U23C the self-cleavage was 0.95. G10U G31U showed a self-cleavage of 0.181. For G11U C21U, the self-cleavage was 0.0923. Variant G10U A83C has a self-cleavage of 0.181. In the case of G10C U79C, the self-cleavage is reported as 0.132. For G10U A87G, the self-cleavage was 0.704. With G10U A87U the self-cleavage was 0.653. For G11U G80A, the self-cleavage was 0.136. For U12A C62A, the self-cleavage was 0.458. Work on U12A C62G yielded a self-cleavage of 0.133. G11A G80U showed a self-cleavage of 0.0839. U12A G54U showed a self-cleavage of 0.415. In the case of G11C G67C, the self-cleavage is reported as 0.115. Variant G11C G67A has a self-cleavage of 0.248. Variant G11C G67U has a self-cleavage of 0.323. G11C G34C showed a self-cleavage of 0.0852. In the case of G11U U12C, the self-cleavage is reported as 0.125. With G11U U12G the self-cleavage was 0.199. With G11A U79C the self-cleavage was 0.161. G11U C75U showed a self-cleavage of 0.0422. For U12A A83G, the self-cleavage was 0.302. G11U G40U showed a self-cleavage of 0.18. In the case of G11U G40C, the self-cleavage is reported as 0.0181. In the case of G11U G28A, the self-cleavage is reported as 0.0219. Work on G11U G28U yielded a self-cleavage of 0.0396. G11U C26U gave a self-cleavage of 0.847. With G11U U27G the self-cleavage was 0.353. Work on G10U C22U yielded a self-cleavage of 0.188. Variant U12A A42U has a self-cleavage of 0.119. U12A A42C gave a self-cleavage of 0.147. Variant U12A A42G has a self-cleavage of 0.256. With G10C U60A the self-cleavage was 0.932. Work on G11A U65A yielded a self-cleavage of 0.396. For U12A G82A, the self-cleavage was 0.0489. G10U G76A gave a self-cleavage of 0.652. G10U G76C gave a self-cleavage of 0.963. With G10U U27C the self-cleavage was 0.554. In the case of G11A G34C, the self-cleavage is reported as 0.0378. Work on G11U C57G yielded a self-cleavage of 0.358. For U12A U69G, the self-cleavage was 0.795. Variant U12A U69C has a self-cleavage of 0.35. In the case of U12A C36U, the self-cleavage is reported as 0.0678. G11A G82U showed a self-cleavage of 0.0744. G11A G82A showed a self-cleavage of 0.253. U12A C86U gave a self-cleavage of 0.178. U12A G59A showed a self-cleavage of 0.172. With G11A C15A the self-cleavage was 0.108. For G11U A51C, the self-cleavage was 0.324. For G11U A51U, the self-cleavage was 0.506. Work on G11C U23G yielded a self-cleavage of 0.0652. For G11A C75G, the self-cleavage was 0.141. Variant G11A C75A has a self-cleavage of 0. For G11A G39A, the self-cleavage was 0.0936. G11U U72C showed a self-cleavage of 0.231.
